Measured values reported in US20100204147A1, “Methods For Delivering Thymosin Beta 4, Analogues, Isoforms and Other Derivatives” (REGENERX BIOPHARMACEUTICALS, INC., priority 2003, published 2010).

Key:
Format in all cases: biochemical
[1] = biological target: T1, αC-domain (residues Aα221-610) (Homo sapiens, UniProt P02671); test: ELISA and kinetic analysis of incorporation into immobilized αC-domain
T1 construct: human fibrinogen αC-domain (residues Aα221-610); made in house; host or cells: E. coli, pET20b expression vector
T1 sequence (P02671 240-629): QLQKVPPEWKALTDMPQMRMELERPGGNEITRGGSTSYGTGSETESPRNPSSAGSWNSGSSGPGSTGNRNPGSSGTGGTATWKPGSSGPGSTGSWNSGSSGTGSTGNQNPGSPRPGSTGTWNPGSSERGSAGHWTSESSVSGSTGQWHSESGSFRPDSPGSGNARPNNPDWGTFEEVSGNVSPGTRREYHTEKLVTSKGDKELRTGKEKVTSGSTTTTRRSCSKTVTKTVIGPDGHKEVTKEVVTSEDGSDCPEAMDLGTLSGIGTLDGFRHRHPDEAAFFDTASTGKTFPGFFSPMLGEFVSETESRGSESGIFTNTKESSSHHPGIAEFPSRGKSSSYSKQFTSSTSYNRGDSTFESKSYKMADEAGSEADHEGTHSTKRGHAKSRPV
Procedure: (§1) The interaction between thymosin β4 and fibrin(ogen) and its fragments in the presence or absence of FXIIIa was studies by ELISA using plastic microliter plates. Wells of microliter plates were coated overnight at […] with fibrinogen and fibrin at 10 μg/mL or with the recombinant fragments of 20 μg/ml, all in 0.1 M NaHCO3 buffer, pH 8.3. Fibrin was made by addition to the wells of a mixture containing 10 μg/mL fibrinogen 1 NIH u/ml thrombin and 400 u/ml aprotinin, followed by overnight incubation at +4° C. The wells were then blocked by incubation with Super Blocker (Pierce) at 37° C. for 1 h. Following washing with TBS containing 0.05% Tween-20 (TBS-Tween), the indicated concentrations of thymosin β4, FXIII, FXIIIa(Thr) and FXIIIa(Ca) were added to the wells and incubated for 2-2.5 h at 37° C. Bound (incorporated) thymosin β4 was detected by the reaction with rabbit anti-thymosin β4 serum and peroxidase-conjugated anti-rabbit IgG. A TMB Microwell Peroxidase Substrase was added to the wells, and the incorporated thymosin β4 was measured spectrophotometrically at 450 nm.
(§2) To analyze kinetics of the incorporation of thymosin β4 into different fibrin(ogen) fragments, they were immobilized onto the wells of microliter plates (as described above, except that the concentration of all fragments was 20 μg/mL) and incubated with several concentrations of thymosin β4 in the presence of 10 μg/L thrombin-activated factor XIIIa. The incubation mixtures were inhibited every 15 min during 1 hour of incubation by the addition of iodacetamide to final concentration 10 mM. Incorporated thymosin β4 at each time point was detected with rabbit anti-thymosin β4 serum as described above. The initial rates of the reaction of incorporation (V) at different concentrations of thymosin β4 were determined from the slopes of the reaction time course plots and expressed as tangent α=A450/t (min), where A450 represents absorbance at 450 nm in optical units (o.u) which is proportional to the amount of incorporated thymosin β4. […]

Aα392-610 sub-fragment = biological target: T2, Aα392-610 sub-fragment (Homo sapiens, UniProt P02671); test: ELISA and kinetic analysis of incorporation into immobilized Aα392-610 sub-fragment
T2 construct: (residues Aα221-391 and Aα392-610, respectively); made in house; host or cells: E. coli, pET20b expression vector
T2 sequence (P02671 411-629): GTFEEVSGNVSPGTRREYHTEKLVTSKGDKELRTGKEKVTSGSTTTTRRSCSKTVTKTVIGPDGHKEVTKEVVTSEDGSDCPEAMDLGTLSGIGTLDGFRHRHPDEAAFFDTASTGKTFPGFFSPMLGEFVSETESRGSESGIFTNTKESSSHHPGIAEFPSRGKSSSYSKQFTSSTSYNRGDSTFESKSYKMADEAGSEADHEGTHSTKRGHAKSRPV
Procedure: as §1, §2

[2] = biological target: T3, recombinant γ-module (residues γ148-411) (Homo sapiens, UniProt P02679); test: ELISA and kinetic analysis of incorporation into immobilized γ-module
T3 construct: comprising residues 148-411 of the human fibrinogen γ chain; made in house; host or cells: E. coli, pET20b expression vector
T3 sequence (P02679 174-437 isoform P02679-2): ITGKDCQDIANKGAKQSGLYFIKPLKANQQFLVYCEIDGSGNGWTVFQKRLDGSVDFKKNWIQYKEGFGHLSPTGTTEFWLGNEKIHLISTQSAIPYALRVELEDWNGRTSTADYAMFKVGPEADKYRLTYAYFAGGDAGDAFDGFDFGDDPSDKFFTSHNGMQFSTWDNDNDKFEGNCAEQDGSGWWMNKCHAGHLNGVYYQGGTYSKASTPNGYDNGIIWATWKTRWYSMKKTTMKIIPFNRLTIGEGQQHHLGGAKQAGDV
Procedure: as §1, §2

[3] = non-activated factor XIII or without it

Substance: thymosin β4
- non-covalent interaction with αC-domain (ELISA) [1, 3]: no significant non-covalent interaction
- incorporation into immobilized αC-domain (ELISA) ([1]; presence of factor XIIIa): incorporated effectively
- Km ([1]; thrombin-activated factor XIIIa, Lineweaver-Burk plot, read-out: apparent Michaelis constant (Km) for incorporation into the αC-domain): 17.6 ± 2.5 µM
- non-covalent interaction with Aα392-610 sub-fragment (ELISA) (Aα392-610 sub-fragment; [3]): no significant non-covalent interaction
- incorporation into immobilized Aα392-610 sub-fragment (ELISA) (Aα392-610 sub-fragment; presence of factor XIIIa): incorporated effectively
- Km (Aα392-610 sub-fragment; thrombin-activated factor XIIIa, Lineweaver-Burk plot, read-out: apparent Michaelis constant (Km) for incorporation into the Aα392-610 sub-fragment): 8.6 ± 3.7 µM
- non-covalent interaction with γ-module (ELISA) [2, 3]: no significant non-covalent interaction
- incorporation into immobilized γ-module (ELISA) ([2]; presence of factor XIIIa): incorporated effectively
- Km ([2]; thrombin-activated factor XIIIa, Lineweaver-Burk plot, read-out: apparent Michaelis constant (Km) for incorporation into the γ-module): 183 ± 29 µM
